Test results taken from patent publication EP4613288A1.

Legend:
[1] = target: human activated protein C (human) (UniProt P04070); assay: cell-based or functional assay
[2] = target: human activated protein C (human) (UniProt P04070)

| Binder | Mean Value of the Clotting Time (s), Protac-induced APTT, FIX-deficient plasma, antibody 0.5 µg/ml [1] | Mean Value of the Clotting Time (s), Protac-induced APTT, FIX-deficient plasma, antibody 1 µg/ml [1] | Mean Value of the Clotting Time (s), Protac-induced APTT, FIX-deficient plasma, antibody 5 µg/ml [1] | Mean Value of the Clotting Time (s), Protac-induced APTT, FVIII-deficient plasma, antibody 0.5 µg/ml [1] | Mean Value of the Clotting Time (s), Protac-induced APTT, FVIII-deficient plasma, antibody 1 µg/ml [1] | Mean Value of the Clotting Time (s), Protac-induced APTT, FVIII-deficient plasma, antibody 5 µg/ml [1] | minimal dose inhibiting aPC anticoagulant activity, Protac-induced APTT, human plasma deficient in various coagulation factors [1] | fold increase in affinity compared to the humanized antibody without mutations in the CDR regions [2] |
| --- | --- | --- | --- | --- | --- | --- | --- | --- |
| murine antibody HAPC1573 (antibody, from another filing, V domains shown) VH: EVKLEESGGGLVQPGGSMKLSCVASGFTFSNYYLNWVRQSPEKGLEWVADIRLKSNNYEKHYAESVKGRFTISRDDSKSSVYLQMNNLRAEDTGIYYCIREGDYFDYWGQGTTLTVSS VL: NIVLTQSPASLAVSLGQRATISCRASESVDSFGATFMHWYQQKPGQPPKLLIYLASNLESGVPARFSGSGSRTDFTLTIDPVEADDAATYYCQQNNEDPYTFGGGTKLEIKR | 584 s | 567 s | 404 s | 600 s | 629 s | 389 s | > 100 µg/mL |  |
| anti-aPC monoclonal antibody HAPC-14-6 (antibody, V domains shown) VH: EVQLVESGGGLVQPGGSLRLSCAASGFTFSFYYLNWVRQAPGKGLEWVGDIRLKKNNYEKHYAESVKGRFTISRDDSKSITYLQMNSLRAEDTAVYYCAREGDYFDYWGQGTTVTVSS VL: DIQLTQSPSSLSASVGDRVTITCRASESVDSFGATFMHWYQQKPGKAPKLLIYLASRLGSGVPSRFSGSGSGTDFTLTISSLQPEDFATYYCQQNNEDPYTFGQGTKLEIK | 181 s | 198 s | 180 s | 182 s | 187 s | 162 s | < 1 µg/mL | 100 fold |
